Experimental data from US20050070001A1, “Xylosyltransferase and isoforms thereof” (priority 1999, published 2005).

Molecular target: T1, XT-II (Homo sapiens, UniProt Q9H1B5, R305T)
T1 construct: polyhistidine leader of vector pcDNA4/HisMax-TOPO (own knowledge of the vector); made in house; host or cells: CHO-K1, transient transfection with pCG226-XT-II; medium treated with anti-Xpress antibody and protein G agarose beads
T1 sequence (Q9H1B5 46-865 R305T): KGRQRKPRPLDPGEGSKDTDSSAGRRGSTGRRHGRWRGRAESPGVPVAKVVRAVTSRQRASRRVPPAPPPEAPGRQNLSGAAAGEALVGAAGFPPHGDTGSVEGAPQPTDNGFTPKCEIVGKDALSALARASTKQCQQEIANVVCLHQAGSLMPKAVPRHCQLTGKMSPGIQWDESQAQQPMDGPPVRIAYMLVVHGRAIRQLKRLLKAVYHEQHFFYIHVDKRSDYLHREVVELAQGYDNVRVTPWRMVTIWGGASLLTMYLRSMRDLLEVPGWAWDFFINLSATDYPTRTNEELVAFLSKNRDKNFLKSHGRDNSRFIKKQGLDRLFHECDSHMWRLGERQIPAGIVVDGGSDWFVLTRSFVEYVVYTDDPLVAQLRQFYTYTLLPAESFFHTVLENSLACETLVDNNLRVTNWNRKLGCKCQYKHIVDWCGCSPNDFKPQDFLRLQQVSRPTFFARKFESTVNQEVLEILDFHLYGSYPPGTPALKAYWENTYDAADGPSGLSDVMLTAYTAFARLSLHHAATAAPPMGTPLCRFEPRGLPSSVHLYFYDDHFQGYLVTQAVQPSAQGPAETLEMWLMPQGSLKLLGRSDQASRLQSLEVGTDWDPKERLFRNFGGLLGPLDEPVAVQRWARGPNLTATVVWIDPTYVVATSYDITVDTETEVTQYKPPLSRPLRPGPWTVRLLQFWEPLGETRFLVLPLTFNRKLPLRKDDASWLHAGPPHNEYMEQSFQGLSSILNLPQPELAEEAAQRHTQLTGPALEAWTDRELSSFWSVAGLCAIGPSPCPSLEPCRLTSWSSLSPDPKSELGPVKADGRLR
Experiment: XT activity assay of XT-II fused to aminoterminal peptide tag, expressed in CHO-K1 cells
Type: biochemical
From the text: The degenerate primers PFF-sense and Lysc-inv1 which were designed upon the amino acid sequence of proteolytic cleaved peptides of human XT-I were used in a PCR reaction with first strand cDNA of placenta poly(A)^+ mRNA as template. […] To clone the complete coding sequence of the novel cDNA, the RACE strategy was employed. The cDNA finally obtained was 3608 bp (FIG. 8A) and contained a single open reading frame encoding a protein of 865 amino acids with a molecular mass of 97.000. The 3′-untranslated region is 850 bp and a 5′-untranslated region of 149 bp was identified with an in-frame stop codon upstream of the ATG codon. […] No detectable XT activity was recovered by the affinity purification from a control transfection sample. The substrate specificity of the recombinant XT-I was similar to that of the XT-I isolated from human body fluids and cell culture supernatants.
Determination of XT activity. Determination of XT activity is based on the incorporation of [14C]-D-xylose into the recombinant bikunin according to a previously described method (Brinkmann et al., 1997, J. Biol. Chem., 272, 11171-11175). For analysis of the substrate specificity of the recombinant xylosyltransferases synthetic peptides containing the XT recognition sequence were used as acceptor. […] Incorporated radioactivity was determined by liquid scintillation counting. […]

enzymatic transfer of xylose to the acceptor peptides: no enzymatic transfer of xylose
B1: XT-II: human xylosyltransferase isoform 2, 865 amino acids, FIG. 8B (protein, UniProt Q9H1B5 1-865, looked up)
chain: MVASARVQKLVRRYKLAIATALAILLLQGLVVWSFSGLEEDEAGEKGRQRKPRPLDPGEGSKDTDSSAGRRGSTGRRHGRWRGRAESPGVPVAKVVRAVTSRQRASRRVPPAPPPEAPGRQNLSGAAAGEALVGAAGFPPHGDTGSVEGAPQPTDNGFTPKCEIVGKDALSALARASTKQCQQEIANVVCLHQAGSLMPKAVPRHCQLTGKMSPGIQWDESQAQQPMDGPPVRIAYMLVVHGRAIRQLKRLLKAVYHEQHFFYIHVDKRSDYLHREVVELAQGYDNVRVTPWRMVTIWGGASLLRMYLRSMRDLLEVPGWAWDFFINLSATDYPTRTNEELVAFLSKNRDKNFLKSHGRDNSRFIKKQGLDRLFHECDSHMWRLGERQIPAGIVVDGGSDWFVLTRSFVEYVVYTDDPLVAQLRQFYTYTLLPAESFFHTVLENSLACETLVDNNLRVTNWNRKLGCKCQYKHIVDWCGCSPNDFKPQDFLRLQQVSRPTFFARKFESTVNQEVLEILDFHLYGSYPPGTPALKAYWENTYDAADGPSGLSDVMLTAYTAFARLSLHHAATAAPPMGTPLCRFEPRGLPSSVHLYFYDDHFQGYLVTQAVQPSAQGPAETLEMWLMPQGSLKLLGRSDQASRLQSLEVGTDWDPKERLFRNFGGLLGPLDEPVAVQRWARGPNLTATVVWIDPTYVVATSYDITVDTETEVTQYKPPLSRPLRPGPWTVRLLQFWEPLGETRFLVLPLTFNRKLPLRKDDASWLHAGPPHNEYMEQSFQGLSSILNLPQPELAEEAAQRHTQLTGPALEAWTDRELSSFWSVAGLCAIGPSPCPSLEPCRLTSWSSLSPDPKSELGPVKADGRLR
modifications: full-length
